Changes are numbered by the printed parent chain.
How the values were obtained:
[1] = target: T1, death receptor fusion protein DR5-Fc (UniProt O14763 56-182, limits assumed); assay: Biolayer interferometry, DR5-Fc captured on a protein A probe, IgBD-TRAIL01 at 10-500 nM
T1 construct: Captured on a protein A-coated BLI probe; also called TRAIL R2; not shown: Fc part

[2] = target: T2, death receptor fusion protein DR4-Fc (UniProt O00220 24-239, limits assumed); assay: BLI, DR4-Fc on protein A-coated probe; IgBD-TRAIL01 to DR4-Fc
T2 construct: Captured on a protein A-coated BLI probe; also called TRAIL R1; not shown: Fc part

[3] = target: T1, death receptor fusion protein DR5-Fc; assay: BLI, DR5-Fc on protein A-coated probe; IgBD-TRAIL01 to DR5-Fc
Protocol: (§1) The binding constant Ka and the dissociation constant Kd were determined, and then the affinity KD was calculated according to the formula (KD=Kd/Ka).

[4] = target: T3, Human IgG (human); assay: ELISA, coated hIgG, pH 7.4, detection with biotin-labeled anti-TRAIL antibody and HRP-streptavidin
T3 construct: also called hIgG
Protocol: 1) ELISA Human IgG (hIgG) or mouse IgG (mIgG) was coated in a well plate for ELISA. […] After incubating at 37° C. for 1 h, excess protein was removed.

[5] = target: T2, death receptor fusion protein DR4-Fc; assay: BLI, DR4-Fc on protein A-coated probe (method of Example 3)
Protocol: as §1

[6] = target: T1, death receptor fusion protein DR5-Fc; assay: BLI, DR5-Fc on protein A-coated probe (method of Example 3)
Protocol: as §1

[7] = target: T1, death receptor fusion protein DR5-Fc; assay: BLI, DR5-Fc on protein A-coated probe; TRAIL01 to DR5-Fc
Protocol: as §1

[8] = target: T2, death receptor fusion protein DR4-Fc; assay: BLI, DR4-Fc on protein A-coated probe; TRAIL01 to DR4-Fc
Protocol: as §1

[9] = target: T1, death receptor fusion protein DR5-Fc; assay: Biolayer interferometry, DR5-Fc captured on a protein A probe, TRAIL01 at 5-250 nM
Protocol: as §1

T2 sequence (O00220 24-239 limits assumed): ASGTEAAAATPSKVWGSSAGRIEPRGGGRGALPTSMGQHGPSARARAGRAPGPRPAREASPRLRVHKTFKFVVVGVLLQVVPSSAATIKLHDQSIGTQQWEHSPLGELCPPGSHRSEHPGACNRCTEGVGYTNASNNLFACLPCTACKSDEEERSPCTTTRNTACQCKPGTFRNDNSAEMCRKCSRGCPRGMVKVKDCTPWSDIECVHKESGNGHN
T1 sequence (O14763 56-182 limits assumed): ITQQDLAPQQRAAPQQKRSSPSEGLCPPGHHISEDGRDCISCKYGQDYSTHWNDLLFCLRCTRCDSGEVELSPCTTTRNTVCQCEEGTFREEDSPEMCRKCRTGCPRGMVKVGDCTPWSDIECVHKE

B1: fusion protein IgBD-TRAIL01 (other)
chain: TTYKLVINGKTLKGETTTKAVDAETAAAAFAQYARRNGVDGVWTYDDATKTFTVTEGGGGSGGGGSGGGGSVRERGPQRVAAHITGTRGRSNTLSSPNSKNEKALGRKINSWESSRSGHSFLSNLHLRNGELVIQEKGFYYIYSQTYFRFQEEIKENTKNDKQMVQYIYKYTSYPDPILLMKSARNSCWSKDAEYGLYSIYQGGLFELKKDDRIFVSVTNEHLIDMDHEASFFGAFLVG
notes: also called IgBD-TRAIL1
Kd [1]: 1.5 nM | Kd [2]: 4.33 nM | Kd [3]: 1.43 nM | EC50 (read off the curve) [4]: ~0.4 nM

B2: fusion protein IgBD-TRAIL02 (other)
chain: B1 chain with A27E, A28K, A31K, R35N, R36D
notes: No tag is stated
Kd [5]: 3.96 nM | Kd [6]: 1.79 nM

B3: TRAIL01 (ligand)
chain: VRERGPQRVAAHITGTRGRSNTLSSPNSKNEKALGRKINSWESSRSGHSFLSNLHLRNGELVIQEKGFYYIYSQTYFRFQEEIKENTKNDKQMVQYIYKYTSYPDPILLMKSARNSCWSKDAEYGLYSIYQGGLFELKKDDRIFVSVTNEHLIDMDHEASFFGAFLVG
notes: Control protein without IgBD; also called TRAIL1
Kd [7]: 1.5 nM | Kd [8]: 4 nM | Kd [9]: 1.43 nM
